Measurements published in patent US5079230A, “Stable bioactive somatotropins” (Pitman-Moore, Inc., priority 1988, dated 1992).

T1: porcine liver membranes (Sus scrofa, UniProt P19756)
T1 construct: porcine liver membranes; from tissue; host or cells: porcine liver membranes
T1 sequence (P19756 19-638): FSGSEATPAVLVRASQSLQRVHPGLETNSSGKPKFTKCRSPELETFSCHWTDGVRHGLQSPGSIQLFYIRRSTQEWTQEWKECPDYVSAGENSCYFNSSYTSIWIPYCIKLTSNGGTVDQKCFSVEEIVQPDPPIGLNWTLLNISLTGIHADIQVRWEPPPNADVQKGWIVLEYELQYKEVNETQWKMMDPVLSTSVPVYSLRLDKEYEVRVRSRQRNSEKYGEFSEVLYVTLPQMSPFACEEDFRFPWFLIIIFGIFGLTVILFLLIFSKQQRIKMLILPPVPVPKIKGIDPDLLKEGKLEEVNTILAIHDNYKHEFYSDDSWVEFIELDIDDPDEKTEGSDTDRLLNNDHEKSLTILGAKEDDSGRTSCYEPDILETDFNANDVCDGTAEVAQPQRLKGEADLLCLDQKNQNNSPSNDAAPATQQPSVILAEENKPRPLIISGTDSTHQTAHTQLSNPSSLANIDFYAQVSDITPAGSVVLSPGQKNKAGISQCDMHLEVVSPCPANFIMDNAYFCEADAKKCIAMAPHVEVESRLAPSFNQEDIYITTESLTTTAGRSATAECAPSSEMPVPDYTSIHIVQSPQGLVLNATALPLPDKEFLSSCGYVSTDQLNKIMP

T2: pregnant rabbit liver membranes (Oryctolagus cuniculus, UniProt P19941)
T2 construct: pregnant rabbit liver membranes; from tissue; host or cells: liver membranes of pregnant rabbits
T2 sequence (P19941 19-638): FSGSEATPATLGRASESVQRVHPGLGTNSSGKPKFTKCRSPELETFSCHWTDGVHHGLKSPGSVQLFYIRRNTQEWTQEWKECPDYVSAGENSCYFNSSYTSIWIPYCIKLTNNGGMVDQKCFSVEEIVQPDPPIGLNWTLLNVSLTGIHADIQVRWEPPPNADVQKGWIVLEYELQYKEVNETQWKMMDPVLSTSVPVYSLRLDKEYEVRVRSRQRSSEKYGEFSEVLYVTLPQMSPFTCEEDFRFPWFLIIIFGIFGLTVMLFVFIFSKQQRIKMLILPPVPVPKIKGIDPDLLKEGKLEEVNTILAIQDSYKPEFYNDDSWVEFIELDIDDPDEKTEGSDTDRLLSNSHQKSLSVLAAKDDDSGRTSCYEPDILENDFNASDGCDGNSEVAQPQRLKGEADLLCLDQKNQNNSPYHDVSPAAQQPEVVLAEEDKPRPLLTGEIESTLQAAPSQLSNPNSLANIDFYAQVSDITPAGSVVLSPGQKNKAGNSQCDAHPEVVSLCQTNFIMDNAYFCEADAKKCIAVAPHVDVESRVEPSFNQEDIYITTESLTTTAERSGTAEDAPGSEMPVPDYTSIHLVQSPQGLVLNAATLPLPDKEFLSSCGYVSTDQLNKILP

B1: pST Standard: pST standard of the hypox rat assay; footnote mentions pituitary derived pST standard (protein, UniProt P01248 27-216, looked up)
Somatotropin: FPAMPLSSLFANAVLRAQHLHQLAADTYKEFERAYIPEGQRYSIQNAQAAFCFSETIPAPTGKDEAQQRSDVELLRFSLLLIQSWLGPVQFLSRVFTNSLVFGTSDRVYEKLKDLEEGIQALMRELEDGSPRAGQILKQTYDKFDTNLRSDDALLKNYGLLSCFKKDLHKAETYLRVMKCRRFVESSCAF
B2: Dialyzed Zn-rpST: dialyzed zinc recombinant porcine somatotropin (protein, UniProt P01248 27-216, looked up)
Somatotropin: B1 Somatotropin
modifications: zinc form
notes: dialyzed zinc recombinant porcine somatotropin
B3: Small-loop derivatized Zn-RpST: zinc form of small-loop derivatized recombinant porcine somatotropin (protein, UniProt P01248 27-216, looked up)
Somatotropin: B1 Somatotropin
modifications: zinc form; small-loop cysteines carbamidomethylated
notes: zinc form of small-loop derivatized recombinant porcine somatotropin
B4: Non-derivatized Zn-rpST: zinc form of non-derivatized recombinant porcine somatotropin (protein, UniProt P01248 27-216, looked up)
Somatotropin: B1 Somatotropin
modifications: zinc form
notes: zinc form of non-derivatized recombinant porcine somatotropin
B5: small-loop derivatized rpST: recombinant porcine somatotropin with small-loop disulfide reduced with 2-mercaptoethanol and sulfhydryls carbamidomethylated with iodoacetamide (Example 1) (protein, UniProt P01248 27-216, looked up)
Somatotropin: B1 Somatotropin
modifications: small-loop cysteines carbamidomethylated
B6: non-derivatized rpST: unmodified recombinant porcine somatotropin produced in E. coli ATCC 53031 (protein, UniProt P01248 27-216, looked up)
Somatotropin: B1 Somatotropin
modifications: E. coli recombinant

Legend:
[1] = test system: hypophysectomized (hypox) rats; test: body weight gain in hypophysectomized (hypox) rats; type: in vivo, rat; conditions: for % Weight Gain Mean: hypox rats, 24 ug pST/day for 9 days, weight gain over a 10 day period; for % Relative Bioactivity: relative to the pituitary derived pST standard tested at similar concentration, 24 ug
Method: The relative bioactivity and biopotency of non-derivatized rpST and small-loop derivatized rpST prepared according to the method of Example 1 was determined by measuring the body weight gain in hypophysectomized (hypox) rats. Four (4) groups of 10 hypox rats per group received 24 μg pST/day of pST standard, dialyzed Zn-rpST, small-loop derivatized Zn-rpST, or non-derivatized Zn-rpSt for 9 days. Rats were monitored daily and their body weight gains recorded over a 10 day period. The weight gain was measured and the percent relative bioactivity calculated as a percent of standard.

[2] = solution stability, rpST monomer by Superose-12 size-exclusion chromatography; type: physicochemical; conditions: 8 mg/ml, carbonate buffer pH 9.8 or phosphate buffered saline pH 7.4, 37° C., 0.6-120 days; compared with non-derivatized rpST
Method: 8 mg/ml non-derivatized rpST and small-loop derivatized rpST (prepared with IA according to Example 1) solutions containing 0.5% sodium azide were prepared in either 46 mM carbonate buffer (pH 9.8) or phosphate buffered saline (pH 7.4). Aliquots of 1.25 ml were incubated in Eppendorf Microcentrifuge tubes for 0.6, 4.6, 8.8, 22 and 120 days at 37° C.
At the end of each incubation period the aliquots were removed and analyzed for rpST monomer using Superose-12 size-exclusion chromatography with a mobile phase of 46 mM carbonate buffer (pH 9.8).

porcine liver membranes = target: T1, porcine liver membranes; test: binding activity in porcine liver membranes (homologous somatotropin radioreceptor assay); conditions: relative to unmodified (non-derivatized) rpST = 100%
Method: The bioactivity of non-derivatized rpST and small-loop derivatized rpST prepared according to the method of Example 1 was determined using binding activity in porcine liver membranes according to a modification of the method in Haro et al., Homologous Somatotropin Radio Receptor Assay Utilizing Recombinant Bovine Growth Hormone, Mol. Cell Endocrinol., 38:109-116 (1985).

[3] = target: T2, pregnant rabbit liver membranes; test: pST binding assay using pregnant rabbit liver membranes and 125I-labelled rpST; conditions: calculated from the IC-50 data relative to the standard
Method: The bioactivity of non-derivatized rpST and small-loop derivatized rpST prepared according to the method of Example 1 was determined by pST binding assays using pregnant rabbit liver membranes and ^125 I-labelled rpST. A modified version of the assay disclosed in Tsushima et al., Radioreceptor Assay for Growth Hormone, J. Clin. Endocrinol. Metab., 37:334-337 (1973) was used: The rpST sample was incubated at 30° C. for 3.5 hours with 16,000 cpm ^125 I-rpST. The range of concentration used for the displacement curve of the rpST standard and small-loop derivatized rpST was between 0.38-200 ng/ml. Additional information for the pST binding assay are described in Tsushima et al., Radioreceptor Assay for Growth Hormone, J. Clin. Endocrinol. Metab., 37:334-337 (1973).

[4] = stability in the wetted state, rpST monomer recovery; type: physicochemical; conditions: 5 mg wetted with Tris-HCl pH 7.4 or carbonate buffer pH 9.8, 14 days at 37° C.; compared with non-derivatized rpST
Method: Non-derivatized rpST and small-loop derivatized rpST (prepared with IA according to Example 1) containing 5 mg/ml were dialyzed against 0.46 mM carbonate buffer an lyophilized to produce dry rpST samples for further testing. Five mg of dry small-loop derivatized and non-derivatized rpST were wetted with 0.01 ml of 50 mM Tris-HCl, pH 7.4, 0.05% sodium azide or 46 mM carbonate buffer, pH 9.8, 0.05% sodium azide. The paste was allowed to incubate for 14 days at 37° C. At the end of this time, the rpST was diluted to a final concentration of about 1.8 mg/ml in 46 mM carbonate buffer, pH 9.8, sonicated in a Branisonic 220 sonicator for several minutes, and centrifuged at 15,000×G for 5 minutes. The supernatant was analyzed for monomer content by the chromatographic procedure described in Example 6.

Molecule | relative bioactivity ([1]; at equivalent dose when the ST was dissolved in 9.5 high pH buffer) [%] | % Weight Gain Mean [1] [%] | % Relative Bioactivity [1] [%] | percentage of monomer recovered [2] | activity (porcine liver membranes) [%] | percent activity [3] | recovery of rpST monomer [4]
B1 | 51 | 23.1 | 55 | – | – | – | –
B2 | – | 14.4 | 62 | – | – | – | –
B3 | – | 13.5 | 58 | – | – | – | –
B4 | – | 17.1 | 74 | – | – | – | –
B5 | – | 13.5 | – | higher percentage of monomer recovered | 125 | 181% | much greater
B6 | – | 14.4 | – | – | 100 | about 75% | –
